The substances below were run on ϕC31 integrase (Streptomyces phage ϕC31?) (assay: EMSA).

Row | Substance | K half [nM]
1 | attB C+15G, 72 bp fragment | 72.7
2 | attB C-2A:G+2T, 72 bp fragment | 56.7
3 | attB C-2G, 72 bp fragment | 55.7
4 | attB G+2C, 72 bp fragment | 58.3
5 | attB G+16A, 72 bp fragment | 53.3
6 | attB G-16T, 72 bp fragment | 66
7 | attB G-16T:G+16A, 72 bp fragment | 61.3
8 | attB T-15C, 72 bp fragment | 68.3
9 | attB wt, 72 bp fragment | 61.3

Source: paper PMC1904298
